The target in experiment [1] is T1, wild type (wt) HA-tagged TβR-I (UniProt P36897 34-503, limits assumed).
T1 construct: whole, on cells; also called wild type TβR-I; TGF-β type I receptor
T1 sequence (looked up): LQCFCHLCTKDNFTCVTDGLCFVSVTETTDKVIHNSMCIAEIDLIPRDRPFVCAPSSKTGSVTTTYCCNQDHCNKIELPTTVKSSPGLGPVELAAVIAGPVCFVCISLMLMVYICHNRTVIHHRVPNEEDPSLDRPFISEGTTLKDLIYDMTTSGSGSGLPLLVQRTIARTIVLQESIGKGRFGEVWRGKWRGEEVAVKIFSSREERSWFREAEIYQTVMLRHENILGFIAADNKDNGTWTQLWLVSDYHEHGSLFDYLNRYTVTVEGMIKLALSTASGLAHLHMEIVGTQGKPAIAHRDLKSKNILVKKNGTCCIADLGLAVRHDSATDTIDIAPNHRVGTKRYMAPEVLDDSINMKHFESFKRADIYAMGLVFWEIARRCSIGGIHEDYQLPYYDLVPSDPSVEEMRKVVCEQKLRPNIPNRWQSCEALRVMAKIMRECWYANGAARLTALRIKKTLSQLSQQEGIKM
Briefly: affinity cross-linking with 125I-TGF-β1, anti-FLAG immunoprecipitation from COS-7 lysates, SDS-PAGE and autoradiography. From the text:
The interaction of Smad6 with the type I receptors was examined in affinity cross-linking assays. COS-7 cells were transfected with FLAG-tagged Smad6 (F-Smad6) or FLAG-tagged Smad2 (F-Smad2) in combination with the wild type (wt) or kinase-defective (KR) HA-tagged TβR-I and hexahistidine-tagged TβR-II. Cells were affinity labeled with ¹²⁵I-TGF-β1 and lysates were immunoprecipitated with anti-HA antibody or anti-FLAG M2 antibody. Immune complexes were subjected to SDS-PAGE and autoradiography. Smad6 bound to both wild type and kinase-defective TβR-I depending on the kinase activity of TβR-II. […] Similarly to Smad2, the binding of Smad6 to TβR-I required the kinase activity of TβR-II (FIG. 2a). Smad6, however, stably bound to the wild type TβR-I.

Experiment [2] has as its target T2, Smad6 (epitope-tagged, heteromerization experiment of Example 4) (mouse, UniProt O35182 1-495).
T2 construct: Whole coding region of mouse Smad6, expressed inside COS-7 cells
T2 sequence: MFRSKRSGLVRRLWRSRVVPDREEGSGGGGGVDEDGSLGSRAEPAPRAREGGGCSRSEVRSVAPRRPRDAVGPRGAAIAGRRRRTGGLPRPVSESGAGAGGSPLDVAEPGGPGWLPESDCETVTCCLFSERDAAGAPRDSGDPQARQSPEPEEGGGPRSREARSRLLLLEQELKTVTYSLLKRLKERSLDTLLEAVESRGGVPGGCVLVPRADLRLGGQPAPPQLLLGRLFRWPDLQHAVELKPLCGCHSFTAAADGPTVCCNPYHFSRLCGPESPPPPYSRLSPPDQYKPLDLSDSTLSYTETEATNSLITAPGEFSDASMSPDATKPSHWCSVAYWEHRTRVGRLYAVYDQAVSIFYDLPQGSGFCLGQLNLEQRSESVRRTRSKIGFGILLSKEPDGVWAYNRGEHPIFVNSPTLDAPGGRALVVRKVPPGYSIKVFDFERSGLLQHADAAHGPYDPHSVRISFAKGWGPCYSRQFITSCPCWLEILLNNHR
Briefly: co-immunoprecipitation and Western blot from transfected COS-7 cells. From the text:
COS-7 cells were transiently transfected using DMRIE-C (Gibco/BRL, Gaithersburg, Md.). [³²P]orthophosphate- or [³⁵]methionine/cysteine-labeling and immunoprecipitation were done as described by Nakao et al. (J. Biol. Chem. 272:2896-2900, 1997). For Western blot of the immunoprecipitated proteins, tagged proteins were detected by chemiluminescence (ECL, Amersham, Arlington Heights, Ill.).
Smad2 heteromerizes with Smad4 upon phosphorylation by TβR-I (Lagna et al., 1996). It was recently shown that TGF-β also induces association of Smad2 and Smad3 (Nakao et al., EMBO. J. 16:5353-5362, 1997). The effect of Smad6 on the heteromerization of these Smads was examined (FIG. 4). COS-7 cells were transfected with the indicated combination of plasmids and subjected to immunoprecipitation followed by Western blot detection. Expression levels of Smad2 (bottom), Smad4 (middle), and Smad6 (middle) were monitored.
A general note: In western blotting, separated proteins are transferred to a membrane and probed.

B1: FLAG-tagged Smad2 (other, not shown: small tags and cut ends)
chain: SSILPFTPPVVKRLLGWKKSAGGSGGAGGGEQNGQEEKWCQKAVKSLVKKLKKTGRLDELEKAITTQNCNTKCVTIPSTCSEIWGLSTANTVDQWDTTGLYSFSEQTRSLDGRLQVSHRKGLPHVIYCRLWRWPDLHSHHELKAIENCEYAFNLKKDEVCVNPYHYQRVETPVLPPVLVPRHTEILTELPPLDDYTHSIPENTNFPAGIEPQSNYIPETPPPGYISEDGETSDQQLNQSMDTGSPAELSPTTLSPVNHSLDLQPVTYSEPAFWCSIAYYELNQRVGETFHASQPSLTVDGFTDPSNSERFCLGLLSNVNRNATVEMTRRHIGRGVRLYYIGGEVFAECLSDSAIFVQSPNCNQRYGWHPATVCKIPPGCNLKIFNNQEFAALLAQSVNQGFEAVYQLTRMCTIRMSFVKGWGAEYRRQTVTSTPCWIELHLNGPLQWLDKVLTQMGSPSVRCSSMS
notes: Expressed inside COS-7 cells; also called F-Smad2
Turning to B1, the binding result in experiment [1] is recorded as “no binding”.

B2: Smad2 (epitope-tagged, heteromerization experiment of Example 4) (other, not shown: small tags and cut ends)
chain: B1 chain
Take B2: the binding result in experiment [2] is recorded as “no binding”.

(Values after patent US20040053278A1 (JAPANESE FOUNDATION FOR CANCER RESEARCH, published 2004).)
